Results on three compounds are retold here after US10682419B2, “Prodrugs of peptide epoxy ketone protease inhibitors” (Onyx Therapeutics, Inc., priority 2012, dated 2020).

The nature of data set [1]: Pharmacokinetic comparison of Compound A and prodrug in mouse. Format: in vivo.
Data set [2] can be described thus: Conversion of PEG conjugates to drug in human plasma. Format: in vitro ADME.

Take `CC(C)C[C@H](NC(=O)[C@H](CCc1ccccc1)NC(=O)CN1CCOCC1)C(=O)N[C@@H](Cc1ccccc1)C(=O)N[C@@H](CC(C)C)C(=O)[C@@]1(C)CO1` [Cmpd A, (S)-4-methyl-N—((S)-1-(((S)-4-methyl-1-((R)-2-methyloxiran-2-yl)-1-oxopentan-2-yl)amino)-1-oxo-3-phenylpropan-2-yl)-2-((S)-2-(2-morpholinoacetamido)-4-phenylbutanamido)pentanamide]: the “[Cmpd A] (μM) at 1 hr” value in data set [1] (time 1 hr) was found to be 0.008 µM. In addition, the “[Cmpd A] (μM) at 4 hr” value in data set [1] (time 4 hr, BLOQ = below level of quantitation) is given as “BLOQ”. Further, the “[Cmpd A] (μM) at 6 hr” value in data set [1] (time 6 hr, BLOQ = below level of quantitation) is “BLOQ”. Besides, in data set [1] (time 24 hr, BLOQ = below level of quantitation), the “[Cmpd A] (μM) at 24 hr” value is “BLOQ”.

In the case of `COCCOCCOCCOCCOCCOCCOCCOCCn1cc(CNC(=O)c2cccc(S(=O)(=O)OCC(C)(O)C(=O)[C@H](CC(C)C)NC(=O)[C@H](Cc3ccccc3)NC(=O)[C@H](CC(C)C)NC(=O)[C@H](CCc3ccccc3)NC(=O)CN3CCOCC3)c2)nn1` (some centres unmarked), in data set [2], the “Conversion to drug in Human Plasma (%) 2 min” value turned out to be 7%, the “Conversion to drug in Human Plasma (%) 30 min” value was determined as 63%, the “Conversion to drug in Human Plasma (%) 1 hr” value amounted to 100% and the “Conversion to drug in Human Plasma (%) 2 hr” value is recorded as 95%. Also, the “Conversion to drug in Human Plasma (%) 4 hr” value in data set [2] was 80%.

Turning to `COCCOCCOCCOCCOCCOCCOCCOCCn1cc(COCCCS(=O)(=O)OCC(C)(O)C(=O)[C@H](CC(C)C)NC(=O)[C@H](Cc2ccccc2)NC(=O)[C@H](CC(C)C)NC(=O)[C@H](CCc2ccccc2)NC(=O)CN2CCOCC2)nn1` (some centres unmarked), in data set [2], the “Conversion to drug in Human Plasma (%) 2 min” value turned out to be 2%, the “Conversion to drug in Human Plasma (%) 30 min” value came out at 18%, the “Conversion to drug in Human Plasma (%) 1 hr” value is given as 58% and the “Conversion to drug in Human Plasma (%) 2 hr” value came out at 90%. For the same compound, the “Conversion to drug in Human Plasma (%) 4 hr” value in data set [2] amounted to 80%.
